{"source": "paper PMC6263114", "origin": "cited, not measured here", "target": "transferrin receptor (TfR) (Homo sapiens) (UniProt P02786)", "sequence (P02786 89-760)": "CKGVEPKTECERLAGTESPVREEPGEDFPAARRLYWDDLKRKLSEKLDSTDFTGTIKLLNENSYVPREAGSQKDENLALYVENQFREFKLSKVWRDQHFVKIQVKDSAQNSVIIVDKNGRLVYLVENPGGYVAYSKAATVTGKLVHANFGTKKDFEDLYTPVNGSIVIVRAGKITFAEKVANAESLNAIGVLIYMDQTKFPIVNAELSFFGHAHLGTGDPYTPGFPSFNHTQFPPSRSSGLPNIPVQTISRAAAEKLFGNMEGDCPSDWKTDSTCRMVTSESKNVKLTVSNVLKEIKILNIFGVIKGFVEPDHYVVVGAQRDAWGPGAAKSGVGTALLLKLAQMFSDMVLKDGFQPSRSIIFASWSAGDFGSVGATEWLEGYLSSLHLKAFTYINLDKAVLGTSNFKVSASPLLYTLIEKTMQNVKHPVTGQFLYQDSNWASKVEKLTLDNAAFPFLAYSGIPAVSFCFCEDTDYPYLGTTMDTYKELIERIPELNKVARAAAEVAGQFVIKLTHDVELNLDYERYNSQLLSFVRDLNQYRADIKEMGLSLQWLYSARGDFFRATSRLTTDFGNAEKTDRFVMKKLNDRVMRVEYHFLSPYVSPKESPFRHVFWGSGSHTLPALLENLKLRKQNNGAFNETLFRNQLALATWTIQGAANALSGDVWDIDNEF"}
{"substance": "T7 peptide", "values": [{"measurement": "Kd", "value": 10, "unit": "nM"}]}
